Reference: patent publication US11634497B2, “Anti-CCR7 antibody drug conjugates” (NOVARTIS AG, priority 2017, dated 2023)

Columns and labels:
Type in all cases: cell-based
KE97 = assay: ADC cell viability assay (CellTiter-Glo, four days); details: KE97 (Multiple Myeloma); CCR7 receptor levels ~100,000; Table 19
Protocol: (§1) Cytotoxic effects after binding of directly conjugated antibodies (ADCs) with various payloads and their internalization into CCR7(+) cells were studied by assessing cell viability after four days of treatment. Three fold dilutions of the ADCs were added to 384-well bottom white plates in triplicates ([…]). […] Cells were harvested (adherent cells were detached with Accutase) and resuspended to approximately 2×10^4cells/ml. Cells were added to 384-well plates on top of the antibody (20 μl/well). The plates were incubated for four days at 37° C. and 5% CO2. Subsequently, 20 μl/well of CellTiter-Glo solution (CellTiter-Glo® Luminescent Cell Viability Assay; Promega, #G7571) was prepared and added to the cells. Cell viability was determined by the luminescence signal, which was measured after 10 min of incubation at 22° C. and 400 rpm with the Envision reader. IC50 values were calculated using the Graphpad Prism software.

DEL = assay: as above; details: DEL (ALCL); CCR7 receptor levels ~100,000; Table 19
Protocol: as §1

SR786 = assay: as above; details: SR786 (Anaplastic large T cell lymphoma); CCR7 receptor levels ~28,000
Protocol: as §1
(§2) To assess the ADCs for target-specificity and receptor-level dependency, ADC activity was tested across cell lines with different CCR7 receptor levels. […] Cell lines were chosen based on similar sensitivity to payload.

DND-41 = assay: as above; details: DND-41 (T cell leukemia); CCR7 receptor levels 1,700
Protocol: as §1, §2

CML-T1 = assay: as above; details: CML-T1 (T cell leukemia); CCR7 receptor levels ~29,000
Protocol: as §1, §2

[1] = test system: CCR7 and CD20 expressing JVM2 cells; assay: surrogate ADCC reporter assay; details: JVM2 target cells and Jurkat-V158 effector cells
Protocol: Capacity of candidate antibodies to mediate ADCC was assessed using a surrogate ADCC reporter assay. CCR7 and CD20 expressing JVM2 cells were used as target cells. JVM2 cells were washed and re-suspended at 8×10^4 cells/ml cells/ml. Effector cells in this assay were a Jurkat cell line stably expressing CD16V158 and an NFAT dependent luciferase reporter (Jurkat-V158); expression of luciferase is a surrogate for canonical ADCC signaling through CD16. Briefly, Jurkat-V158 cells grown in suspension were spun down to remove spent media, the pellet was resuspended in assay media and adjusted to 1.6x10^6 cells/ml cells/mL. Mix equal volumes of effector and target cells to make a master mix of cells yielding a target to effector cell ratio of 1:5 or 1:20. A titration of antibody was diluted in assay media with a final top concentration of 50 ug/mL in the assay well. 12.5 uL of Ab solution was added to a 384 well round bottom plate and then 12.5 ul of the master cell mix was added. Antibody and cells were mixed well by pipetting and incubated for 4 hours at 37° C. in 5% CO2. Following incubation, 15 uL of Bright Glo substrate (Promega #G7572) was added to each well and shaken for 5 min at RT at 1050 rpm. Luminescent signal was read on the Envision plate reader (Perkin Elmer).

[2] = target: T1, hCCR7 (CHO-flpin-hCCR7 cells) (Homo sapiens, UniProt P32248); assay: β-Arrestin assay (PathHunter), antagonistic mode; details: parental anti-CCR7 antibodies; hCCL19 as ligand; FIGS. 4B, 4C
T1 construct: host or cells: CHO (CHO-flpin), doxycycline-induced
T1 sequence (P32248 25-378): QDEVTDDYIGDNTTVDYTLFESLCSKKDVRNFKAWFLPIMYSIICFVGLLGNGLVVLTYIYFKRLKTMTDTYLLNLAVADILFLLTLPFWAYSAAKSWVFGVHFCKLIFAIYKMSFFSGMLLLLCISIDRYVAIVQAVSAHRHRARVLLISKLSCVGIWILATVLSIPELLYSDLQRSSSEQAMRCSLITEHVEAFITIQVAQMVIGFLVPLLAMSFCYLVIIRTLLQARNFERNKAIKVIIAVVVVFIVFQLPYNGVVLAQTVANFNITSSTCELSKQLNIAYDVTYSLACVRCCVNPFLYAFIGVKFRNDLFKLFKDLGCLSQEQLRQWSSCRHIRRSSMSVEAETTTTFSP
Protocol: To determine functionality of the anti-CCR7 antibodies, the β-Arrestin assay was performed using the PathHunter Flash Detection Kit from DiscoverX (#93-0247) either in agonistic mode for assessment of agonistic function or antagonistic mode for assessment of antagonistic function.
In the antagonistic mode, CHO-flpin-hCCR7 cells were seeded as described above. The next day, a 6× working solution (0.5 μM×6=3.0 μM) in 1× assay buffer was made for each test antibody or positive control MAB197 (R&D reference antibody; ligand antagonist) or negative control hIgG. 5 μl of the 6× working solution of antibodies or controls were added to each well, briefly spun down, and incubated at 37° C./5% CO2 for 30 min. During incubation, serial dilutions of a 6× working solution in 1× assay buffer were made for hCCL19. Following incubation, 5 μl of the 6× working solution of hCCL19 were added to each well, briefly spun down, and incubated at 37° C./5% CO2 for 90 min. Following incubation, 25 μl of detection reagent were added to each well, incubated at room temperature in the dark while shaking for 20 min. Then, the luminescence signal for enzyme activity was measured on the Envision machine and analyzed in Excel.

B1: 674J13.CysMab.DAPA.AURIX2 (conjugate)
heavy: DVQLQESGPGLVKPSQTLSLTCTVSGYSITSGYSWHWIRQHPGKGLEWMAHIHSSGSTNYNPSLKSRITISRDTSKNQFSLKLSSVTAADTAVYYCARGGVQAFAYWGQGTLVTVSSASTKGPSVFPLAPSSKSTSGGTAALGCLVKDYFPCPVTVSWNSGALTSGVHTFPAVLQSSGLYSLSSVVTVPSSSLGTQTYICNVNHKPSNTKVDKRVEPKSCDKTHTCPPCPAPELLGGPSVFLFPPKPKDTLMISRTPEVTCVVVAVSHEDPEVKFNWYVDGVEVHNAKTKPREEQYNSTYRVVSVLTVLHQDWLNGKEYKCKVSNKALAAPIEKTISKAKGQPREPQVYTLPPSREEMTKNQVSLTCLVKGFYPCDIAVEWESNGQPENNYKTTPPVLDSDGSFFLYSKLTVDKSRWQQGNVFSCSVMHEALHNHYTQKSLSLSPGK
light: EIVLTQSPATLSASPGERVTMSCSASSSVIYMHWYQQKPGQAPRRWIYDTSKLASGVPARFSGSGSGTDYTLTISSMEPEDAAVYYCQQWSSNPLTFGQGTKLEIKRTVAAPSVFIFPPSDEQLKSGTASVVCLLNNFYPREAKVQWKVDNALQSGNSQESVTEQDSKDSTYSLSSTLTLSKADYEKHKVYACEVTHQGLSSPVTKSFNRGEC
AMAX (KE97): (>95% AMAX)
AMAX (DEL): (>95% AMAX)
AMAX (SR786): (90% AMAX)
AMAX (DND-41): <20% AMAX
AMAX (CML-T1): (60% AMAX)

B2: 121G12 humanized CysMab: humanized anti-CCR7 IgG1 antibody with cysteine mutations, wild type Fc (antibody, V domains shown)
VH: EVQLVESGGGLVKPGGSLRLSCAASGFTFSTYAMSWVRQAPGKGLEWVATISDAGSYSYYPDNVKGRFTISRDNAKNSLYLQMNSLRAEDTAVYYCARRGSRYEEYYVMDYWGQGTTVTVSS
VL: EIVLTQSPATLSVSPGERVTLSCRASQSISNNLHWYQQKPGQAPRLLIKYASQSISGIPARFSGSGSGTDFTLTISSVEPEDFGVYFCQQSSSWLTFGQGTKLEIK
ADCC activity; IC50 (nM) [1]: Yes, but insufficient curve fitting

B3: 674J13 Parental: parental anti-CCR7 antibody derived from the hybridoma (antibody, V domains shown)
VH: DVQLQESGPDLVKPSQSLSLTCTVTGYSITSGYSWHWIRQFPGNKLEWMAHIHSSGSTNYNPSLKSRISIIRDTSKNLFFLQLNSVTTEDTATYYCARGGVQAFAYWGQGTLVTVSA
VL: QIVLTQSPAIMSASPGEKVTMTCSASSSVIYMHWYQQKSGTSPKRWIYDTSKLASGVPARFSGSGSGTSYSLTISSMEAEDAATYYCQQWSSNPLTFGAGTTLELK
functionality in β-Arrestin assay, antagonistic format [2]: neutral, non-ligand blocking antibody
